Measurements from the DeepSol protein solubility set.

Test: soluble on expression in E. coli; label from the status in PepcDB or PDB records

Soluble on expression in E. coli, not soluble:
MGSDKIHHHHHHMPYDSTDREIMRFLQGDIPLESRPYKNLAERLELSEEEIVLRVKKLREKGFLRRMGAVLRHRQAGFAVNAMVAWKLENEEQADRAGKIMAGYKEISHCYIREVPPDFDYSIFSMIHVKNEERLAEIIEEISLQTGIGKYIIIRSSRELKKESMQYF
MGSDKIHHHHHHMPYSSKEEAAQGWADIIARARSCSAGAARKAVAQLGRRDLFFLLTRLLGREEMFNDWCFARCAEVQRQPDGMLDLWAREHYKSTIITFGQSIRDILNDPEITIGIFSHSRPVAKGFLAQIKHEFEQNHALKTLYPDVLYSDPKRQSPRWSLDGGLVVRRSTNPKEATVEAWGLVDGQPTGKHFRLLVYDDVVTRESVTSPEMIAKVTECWALSLNLGARGGACRTIGTRYHYNDTYKTMMDRKAAEPRIHAATADGTPDGPSVFLPQNELADKRRRMGPFVFGCQMLQNPVADRMQGFREEWLRWWQPGAASWQAMNRYILVDPAASRKEQADWTVMLVVGLGADGNYYLIDGIRDRLNLTGRAGALFRLHRTYRPLAVGYEQYGMQADIEYMHTEMDRRNHRFDITPLAGRLAKADRIRRLVPLFEGGRVYLPRVCPFTDSEGRQRDLSRELVTEEYLAFPVCGHDDMLDCLARITDSALGAHPAVDSNAQYESTANMEYPLWT
MGSDKIHHHHHHMQDSMLSGLFGALTTEHRLNNIANNLANVNTNGYKRDVLAFKDTMALFAHDEIMEPMANVRSKKLFPEPLHVARPRIAVARTDFSQGSFHYTSDPLDLAISGNGFFKVRTPEGEFYTRNGHFRQTSDGQLVTMQGWPVLSEGGDINLPQGKNLQVASDGRIAVDGVDVGQLQVVTVSDLEGLEKLGGNLYRLREGSTAGEVPVGPDVIVSQGYIETSNVEVVNEMVNMIETQRQFEAYQKVMQTSDTVDRDAITKIGRGR
MGSDKIHHHHHHMQENRYNTCDRFLGGLEKDFIITEQIEDSPLTSEPSFLDYGIIAVCNRGSAIIHLLDNKHVWNKNELIFLFPRQLCSMRNVSEDFSAKFIIIPHVLHGDVLSSLRHFDPGFHFFVKDHFYYNIEDNNGIERFQSFCKLIENELERYRGNGLLRERIICYLGIFYMDVYDYYVKVRKKIPFRTSLRKEQLIYDFCSLVAENFKNHKNVGFYADKLNITTTYLSAIMNERCGISAKEFLSIYIVLEVKSLLRDSRLNIQEIAILTNFPSQSTLNRFFRQRTGMTLSQYRKHIFST
MGSDKIHHHHHHMQERGLVGLGLRREMLSEFCQQLPSAIDFLEVAPENWMTLGGKYGKQFRQLTEQHTFFCHGLSLSIGSPEPLDLEFVRRIKAFMDLHQIDVYSEHLSYCSGAGHLYDLMPIPFTEAAVKHVARRVKQVEDILYRPLILENVSFYAAPSAQMTELAFLTAVLEEADCKLLLDVNNIYVNSINHQYDALAFLKAMPTERIAYLHIAGHFKESEELLIDTHGSDINAPVWALLDSCYAEHGVLPTLLERDFNLPATAHLLDEINQIHAYQARAKSNLDKRIA
MGSDKIHHHHHHMQFERISTEQKKLSLIQTFLHQNALKLDEQIEYFVVGYNDNEQIVVCGGLAGNIIKCVAIDESLRGSGVALQLITELVDLAYTLKRPHLFIYTKPEYATLFKSCGFYIISDANPYVVLLENSATRLQKQCSLWEKMRVDGNRIGSIVMNANPFTLGHRYLIEQALQQCDHLHLFIVGEDASQFSYTERFEMIQQGIFDLSNITLHSGSDYIISRATFPNYFLKDQLITDESYFEIDLKLFRLHIAQALGITHRFVGTELNCPVTAEYNRQMHYWLMDAEMNAPKINVIEIPRKTASNHIISASTVRKHLAEKNWAQLAEFVPMTTLNYLQKCGRF
MGSDKIHHHHHHMQHTIQHLYKTHGDDGLLYAWFLSMHTRVDIILCCQKSENELMLVVNSIYDTLRQLERIANYYDPSSELSQVNQRASTAPVMISQSLYRMISLCTEYHKKTLGCFDVTIHSDNYNQDTIHSIHLYPEAQSVFFQQAGTTINLSGFLKGYALDKIREILKVHIIANALINMGNSSVLALGNHPVGTGWKVSFDDQASTTKNHKTQSILLNNECLTTSGNNSDDRKHIISPSSGKPLEGVRQVTVVTDDGTTGEILSTSLFVANQKQRELIMSEFLPKRVIDLELCQMV
MGSDKIHHHHHHMQIEMTGITKAFGPVPVLKGVDFTLATGEIHALMGENGAGKSTLMKILTGVHKADQGTILVDGVEQQYKNPKLAEEAGIAFIHQELNILPDLTVTENLFLGRELKSRFGVLKQAEMKRLAERELAELNVFMDVNQLARTLSVGQQQMIEIAKALMTDAKVIIMDEPTAALTEREIRALFSVATALREQGVSIVYISHRMEEIFELCDRITVLRDGVSVSTHRIADTSFEQIVREMVGREMGERYPERQVTLGQTVLEVTGATGKRFEDVSFSVRAGEIVGFSGLMGAGRTEVMRGLFGIDRMKAGTISLNGKTIKIKSPHDAIKQGLGFLTEDRKGEGLFLDFSLRENISLPTIRSLSKSGVISDQSERQFAEGYLKSLSVRHSSMDQPAKSLSGGNQQKVVLAKWLGTKPDVLILDEPTRGVDVGAKKEIYMIMDELAATGVAIIMISSDLPEILGMSDRVYVMREGQMSGMLNQEEATQESIMTLATGGQ
MGSDKIHHHHHHMQILTVQMNIAGEWRDVAVVGFYAPEKGTGGPCVLNYDIEHVTSYFHQFAQTAVSVSLPVDNIPLRSPHWHRFLEDIMPAGSSRDYWVKRLGLQDMPNLERDFQLLKYGTIAPIGNLRIKESVPEKAKKSLPVTFSIADVSELQIDFIEYAQSRGAAAGGASGAGGAAPKLLVRLNEQQGVWIDTFQDDPRNLDQPYLVKFPRGKTTLDSDILRAEYHFYHELTQLGFETISVESMKLIEVERGPSLWLPRFDYGVEAGAMVSYGMESVYAILGEPTAKPLLHADVIRRLLAEFNKKENYGNTRTPLDVEAGLEGKSGIEAFVVEWVRRDLLNIAFGNSDNHGRNTSFIKHGNRVQLAPIYDFAPMKADYEMITRTFTWGEGMELGGVYNFPAIAEHLSDLLSPNDLMSALNETAVRLLGLELRLRQRGVPESILAHSGIGFATLEARMQQWGLL
MGSDKIHHHHHHMQKPHLLITSAGRRAKLVEYFVKEFKTGRVSTADCSPLASALYMADQHYIVPKIDEVEYIDHLLTLCQDEGVTALLTLIDPELGLLAQATERFQAIGVTVIVSPYAACELCFDKYTMYEYCLRQGIAHARTYATMASFEEALAAGEVQLPVFVKPRNGSASIEVRRVETVEEVEQLFSKNTDLIVQELLVGQELGVDAYVDLISGKVTSIFIKEKLTMRAGETDKSRSVLRDDVFELVEHVLDGSGLVGPLDFDLFDVAGTLYLSEINPRFGGGYPHAYECGVNFPAQLYRNLMHEINVPQIGQYLDDIYMLKHDTVTLISAAELQKIKR
MGSDKIHHHHHHMQKSRPEQDVHEDIKILIQTHFGESGQGIHIEVKGDKVSLWGTVDSLAEKDFIGQRIGRIDGVKELDNSLTVANDGKITDKDIEKQVVERFAQSNFEEIMHLGCRASKGIVTLLGHLETQSSERLAKRIASQVRGVKEVRSEIDFLEKAVDDATLVNRVENALVASPWVNAHEIKTSARNGLITLTGMVNTQEEMEWAVDTAYQVPGVKAVVSEIFSRHRSQGEDLYMTEQLVRKLGQHGMTSQLVRAFVQDGIAYMTGEVYSDEDRRWAESMGQHVEGIKSINSSIKVAAHSSK
MGSDKIHHHHHHMQLVFDFPVNPKYSLDNFVICSGNETAYRFVRRLTDDEGAENLLYLHGPSGSGKTHLLMAIGAHFSARAGLSSVPCISFKDVDEVYGGEYPAEAVSKLAERFRNAPALLVDDLHLIPDQQAVRVELWQLFNDFYQAGRPIAITGLYPPKELPTIDDHLISRLLWGLVARVDISDDDSRRLIMKKLADDRQIVLPADVIDYLLLHVRRDVPSLIEALDAISRYALAAKRKVSVRLAREALAFHS
MGSDKIHHHHHHMQMAVRWQLSGSYFENCSCDVVCPCLLSTKAQLTSRPTKGVCDVGLVFHIDTGNYGDVRLDGLSVALVAHTPGPMADGNWTAAAYIDERADDRQTEALGAIFTGAAGGPMAVLAPMIGTNLGAKKVPIDYRIDGKKRSAAIAGVMQMAVEPLPTMREDGQMWAATGHPVNPDWLGMAMGAQGSTFSDHGMSWDNSGQNGHYAPINWSGE
MGSDKIHHHHHHMQPTYLPWMGYFDLIDIADKFVFLDNVQLERSGWQVRNRIRSSQGELMLRVAIATPKRFDETLIHQTQFVTGHPWRKKHLKSIQMNYQKAPYFAQVYPLLESLYQKDETSLSQFNISVINALCTFMGINTPRMLASELVDIEGIKDARLTSICKHLDADQYLSPLGAMAYIEQESSGGDLGENGIDVFYHQFVHPQYTQVYDGFISHLSIIDALFNLGPQNTVTLIRQFRQAPINYTSLPR
MGSDKIHHHHHHMQQPLAYRMRPKTLKDVVGQQQLVGPGKIIARMVKAKRLSSMILYGPPGTGKTSIASAIAGSTKYAFRMLNAATDSKKQLQIVAEEAKMSGTVILLLDEIHRLDKTKQDFLLPHLESGRIILIGATTENPYISINPAIRSRTQIFQVFPLTDDDIQHAVERALADEKNGLGSYHVDLAPAAMHHLCTATNGDLRSALNGLELAVLSSSPADDGTIAISQQTIEECLQKKALSADKDGDAHYDVISAFQKSIRGSDVNAALHYLARLVEAGDLKSIMRRLMVIAYEDIGLANPAACAHTVAAVQAADQLGFPEARIPLADAVIELALSPKSNSGISAIDAALTTVRDGHFGDIPADIKDAHYQGAAKLGHGVGYDFPHDHPGDWVAQQYLPDAIKSAKYYEPKTNGRYETALAQQYEKLLKANERNR
MGSDKIHHHHHHMQRARCYLLGERAVVLELEPPMSLESQQRIWGLAERLNHHEEVLEVIPGMNNLTVLLAHPQQVALDAIERLQRWWEESESLVFDPRDIDIPVIYGGEAGPDLAEVAAHSGLTVSQVVEAHAAAQYVVYFLGFQPGFAYLGGLNEKLHMPRRAEPRLRVPEGSVGIGGAQTGIYPLATPGGWQLIGRTSLTLFNPQTMPPTLLRPGDNVRFLPQKEGVC
MGSDKIHHHHHHMQRYDAVISGAGPAGCSAALSLAQKGRRVLLIDKARFPREKICGDGVTAASTELLEEMGVLELLRQRPGSLTEFRGATFVSPGGTVVQGRILRNGHLSGSSYVIPRMVLDDSLVSRVKEHSSITFLDKTTVTGLVMDGDRARGVATSAGEFCGRIIIAADGAYSPIAKQLDLWNRDKRQQGFAMRAWFSGVEGLGDSIELCYDKAMLPGYGWIFPAGEQRANVGVFLLPRFADQRSTKRLFKSFVKENAFAAARLKNAVMEPGSLKSWPLPFGSFAGRRGRGNVLLAGDAGSFIDPLTGEGIYYALKTGRYAAEAVANALERNDESAALTRYEQLWRGEFSGRVYFPGYAFQHFMNNSWFVDTFMRYTAKKQHRADLLADVVAHNRKRRELFKLLNPFY
MGSDKIHHHHHHMQTLTIDVGGSKALFELQLAGHTEQYKIPTGEGFKIEELNNQIAALERDYDLQDYQLAIAVPGLVQHHRLVACKSLPGLNGLSIDTVKTQGTLKIISNDIDAGMQALCDAKYACELLVMCGSGIGMSIAFNGQVFSGATGVAGELGHCRIMSESGEFRLEQLASGDSVRSRNITSQEDLYRAGSYLGMGLAWAVNLLNPNRIWLAGGMMNSTPYYKGCIDNLKRMALSAPLAEMKIHRVDDMETLVCRGLSVILARDVSLT
